These results are taken from patent US20180280549A1 (METAFORA BIOSYSTEMS, published 2018).

Test [1] concerns the target T1, ASCT2 (glutamine and other neutral amino acid transporter) (human, UniProt Q15758 1-541).
T1 construct: Endogenous transporter on human pancreatic tumor cell lines; also called human ASCT2
T1 sequence: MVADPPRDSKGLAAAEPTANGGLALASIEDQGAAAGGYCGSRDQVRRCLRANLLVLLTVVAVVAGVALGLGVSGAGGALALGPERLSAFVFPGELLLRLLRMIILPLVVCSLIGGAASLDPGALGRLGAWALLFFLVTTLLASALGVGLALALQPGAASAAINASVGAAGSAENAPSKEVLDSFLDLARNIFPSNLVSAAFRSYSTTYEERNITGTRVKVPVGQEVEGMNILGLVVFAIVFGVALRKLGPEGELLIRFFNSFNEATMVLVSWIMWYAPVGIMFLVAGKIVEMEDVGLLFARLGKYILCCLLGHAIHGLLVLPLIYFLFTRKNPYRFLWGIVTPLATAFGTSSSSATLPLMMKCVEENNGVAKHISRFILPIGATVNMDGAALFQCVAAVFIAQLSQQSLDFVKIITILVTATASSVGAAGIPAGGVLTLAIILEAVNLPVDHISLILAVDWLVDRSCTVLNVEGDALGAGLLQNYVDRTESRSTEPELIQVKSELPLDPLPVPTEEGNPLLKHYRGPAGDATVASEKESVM
Kind of test: flow cytometry on pancreatic tumor cell lines (endogenous transporter; ASCT-1/ASCT-2 is the target by Table 1), anti-mouse A647 detection; Capan1 also detected (data not shown).

The target in test [2] is T2, ASCT1 (glutamate and neutral amino acid transporter) (human, UniProt P43007 1-532).
T2 construct: Endogenous transporter on human pancreatic tumor cell lines; also called human ASCT1
T2 sequence: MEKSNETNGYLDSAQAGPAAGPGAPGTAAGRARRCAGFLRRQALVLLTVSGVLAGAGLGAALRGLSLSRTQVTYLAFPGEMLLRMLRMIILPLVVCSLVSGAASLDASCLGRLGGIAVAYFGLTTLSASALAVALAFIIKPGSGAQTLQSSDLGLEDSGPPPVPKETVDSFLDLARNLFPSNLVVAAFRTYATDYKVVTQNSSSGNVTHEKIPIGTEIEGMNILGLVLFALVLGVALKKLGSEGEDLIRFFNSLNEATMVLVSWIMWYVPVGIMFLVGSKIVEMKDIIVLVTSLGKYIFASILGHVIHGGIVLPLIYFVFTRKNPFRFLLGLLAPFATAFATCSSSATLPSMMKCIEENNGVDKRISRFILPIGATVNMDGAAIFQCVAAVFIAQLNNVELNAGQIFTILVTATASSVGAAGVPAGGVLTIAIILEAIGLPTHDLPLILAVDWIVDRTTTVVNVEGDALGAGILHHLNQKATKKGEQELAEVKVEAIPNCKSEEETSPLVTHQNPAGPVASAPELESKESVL
The test is described as above.

B1: HERV-W.RBD.MFC (HERV-W.RBD, receptor-binding domain of the human endogenous retrovirus W envelope glycoprotein, fused to a mouse Fc fragment) (Fc fusion)
chain: APPPCRCMTSSSPYQEFLWRMQRPGNIDAPSYRSLSKGTPTFTAHTHMPRNCYHSATLCMHANTHYWTGKMINPSCPGGLGVTVCWTYFTQTGMSDGGGVQGSVDVPRDCGCKPCICTVPEVSSVFIFPPKPKDVLTITLTPKVTCVVVDISKDDPEVQFSWFVDDVEVHTAQTQPREEQFNSTFRSVSELPIMHQDWLNGKEFKCRVNSAAFPAPIEKTISKTKGRPKAPQVYTIPPPKEQMAKDKVSLTCMITDFFPEDITVEWQWNGQPAENYKNTQPIMDTDGSYFVYSKLNVQKSNWEAGNTFTCSVLHEGLHNHHTEKSLSHSPGK
modifications: I-125 on tyrosine or histidine residues in the in vivo experiment only (IODO-GEN method); unlabelled in flow cytometry
notes: The entry may begin with a signal peptide; also called I-125.HERV-W.RBD.MFC
Take B1: the binding result in test [1] and in test [2] was “binds” in each case.
